We go through one substance from patent US20250215104A1.

This assay has as its target cell surface human uPAR (huPAR) (human) (UniProt Q03405). Nature of the assay: cell-based or functional assay.

Sequence of cell surface human uPAR (huPAR) (human) (Q03405 23-305): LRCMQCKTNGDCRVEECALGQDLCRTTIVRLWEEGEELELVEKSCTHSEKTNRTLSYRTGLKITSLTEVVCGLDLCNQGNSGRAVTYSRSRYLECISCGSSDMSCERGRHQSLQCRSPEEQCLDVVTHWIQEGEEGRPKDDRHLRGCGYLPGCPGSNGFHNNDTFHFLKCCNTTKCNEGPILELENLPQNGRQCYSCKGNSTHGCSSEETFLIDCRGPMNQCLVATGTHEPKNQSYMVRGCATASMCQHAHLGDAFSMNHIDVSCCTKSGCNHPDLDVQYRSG

In the case of hIgG control antibody, the cellular endocytosis: mean cellular fluorescent signal (FITC-conjugated antibody, 10 µg/mL, 1 hr, undifferentiated human podocytes) amounted to 100 RFU.
